In article PMC8599861 (2021) one finds Kd data, which are given here for one molecule.

Assay [1] concerns the target CgluDopGS, Dop-loop variant of Dop from Corynebacterium glutamicum (Dop-loop H43-I77 replaced with (GS)4) (Corynebacterium glutamicum). Put plainly: ITC. On the technique in general: Isothermal titration calorimetry measures the heat released or taken up as one component is titrated into another.
The target of assay [2] is T1, Depupylase Dop from Corynebacterium glutamicum, wild type (Corynebacterium glutamicum).
T1 chain: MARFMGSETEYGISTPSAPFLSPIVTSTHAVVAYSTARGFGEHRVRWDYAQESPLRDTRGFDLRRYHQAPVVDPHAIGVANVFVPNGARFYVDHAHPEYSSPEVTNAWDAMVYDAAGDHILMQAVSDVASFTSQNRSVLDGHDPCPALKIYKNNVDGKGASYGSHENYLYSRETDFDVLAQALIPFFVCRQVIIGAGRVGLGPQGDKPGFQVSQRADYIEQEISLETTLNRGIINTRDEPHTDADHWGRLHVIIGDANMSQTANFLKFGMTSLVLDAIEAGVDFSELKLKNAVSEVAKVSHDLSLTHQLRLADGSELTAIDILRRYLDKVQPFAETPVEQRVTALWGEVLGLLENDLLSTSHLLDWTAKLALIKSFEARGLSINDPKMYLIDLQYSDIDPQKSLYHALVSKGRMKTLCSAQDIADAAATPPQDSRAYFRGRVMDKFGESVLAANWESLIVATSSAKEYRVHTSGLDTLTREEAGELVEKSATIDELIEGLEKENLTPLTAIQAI
Put plainly: ITC.

B1: Prokaryotic ubiquitin-like protein Pup from Corynebacterium glutamicum with C-terminal glutamate (natural protein)
chain: MNAKQTQIMGGGGRDEDNAEDSAQASGQVQINTEGVDSLLDEIDGLLENNAEEFVRSYVQKGGE
Turning to B1, the Kd in assay [1] was found to be 76 nM; in assay [2] it was 186 nM.

A word on the Kd: it is the concentration at which binding is half-saturated. A higher Kd goes with weaker binding.
